# T1: His-Ub-RIPK3(387-518) (human, UniProt Q9Y572 387-518)
# T1 sequence (looked up): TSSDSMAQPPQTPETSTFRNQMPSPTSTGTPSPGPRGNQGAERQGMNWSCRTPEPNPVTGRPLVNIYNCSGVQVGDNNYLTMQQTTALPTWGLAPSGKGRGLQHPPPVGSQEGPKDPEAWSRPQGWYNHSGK
# T2: His-Ub-RIPK1(497-583) (human, UniProt Q13546 497-583)
# T2 sequence (looked up): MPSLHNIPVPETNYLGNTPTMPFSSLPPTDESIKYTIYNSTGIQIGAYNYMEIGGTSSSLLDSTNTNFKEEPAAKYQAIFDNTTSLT
# T3: mCHERRY-RIPK3(387-518) (human, UniProt Q9Y572 387-518)
# T3 sequence (looked up): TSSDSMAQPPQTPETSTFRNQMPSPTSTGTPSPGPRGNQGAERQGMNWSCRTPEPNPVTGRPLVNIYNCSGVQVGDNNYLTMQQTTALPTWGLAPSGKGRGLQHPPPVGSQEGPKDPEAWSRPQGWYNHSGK
# B1: mCHERRY-RIPK1(497-583) (domain or fragment, human, UniProt Q13546 497-583, looked up)
# chain: MPSLHNIPVPETNYLGNTPTMPFSSLPPTDESIKYTIYNSTGIQIGAYNYMEIGGTSSSLLDSTNTNFKEEPAAKYQAIFDNTTSLT
# B2: ECFP-M45(1-90) (domain or fragment, murine cytomegalovirus, UniProt Q06A28 1-90, looked up)
# chain: MDRQPKVYSDPDNGFFFLDVPMPDDGQGGQQTATTAAGGAFGVGGGHSVPYVRIMNGVSGIQIGNHNAMSIASCWSPSYTDRRRRSYPKT
# B3: mCHERRY-M45(1-90WT) (domain or fragment, murine cytomegalovirus, UniProt Q06A28 1-90, looked up)
# chain: MDRQPKVYSDPDNGFFFLDVPMPDDGQGGQQTATTAAGGAFGVGGGHSVPYVRIMNGVSGIQIGNHNAMSIASCWSPSYTDRRRRSYPKT
# B4: His-Ub-M45(1-90) (domain or fragment, murine cytomegalovirus, UniProt Q06A28 1-90, looked up)
# chain: MDRQPKVYSDPDNGFFFLDVPMPDDGQGGQQTATTAAGGAFGVGGGHSVPYVRIMNGVSGIQIGNHNAMSIASCWSPSYTDRRRRSYPKT
# B5: YPet-RIPK3(387-518) (domain or fragment, human, UniProt Q9Y572 387-518, looked up)
# chain: TSSDSMAQPPQTPETSTFRNQMPSPTSTGTPSPGPRGNQGAERQGMNWSCRTPEPNPVTGRPLVNIYNCSGVQVGDNNYLTMQQTTALPTWGLAPSGKGRGLQHPPPVGSQEGPKDPEAWSRPQGWYNHSGK
# Tests used:
# [1] = target: the molecule itself; experiment: sedimentation of insoluble material + transmission electron microscopy
# mCHERRY-M45(1-90WT) = target: B3; experiment: single-molecule two-colour fluorescence coincidence spectroscopy
# mCHERRY-RIPK1(497-583) = target: B1; experiment: as above
# SEC = target: the molecule itself; experiment: SEC
# [2] = target: the molecule itself; experiment: negative-stain transmission electron microscopy
# YPet-RIPK3(387-518) [3] = target: B5; experiment: single-molecule two-colour fluorescence coincidence spectroscopy
# ECFP-M45(1-90) = target: B2; experiment: confocal fluorescence microscopy of fibrils
# [4] = target: the molecule itself; experiment: thioflavin T fluorescence kinetics
# His-Ub-M45(1-90) = target: B4; experiment: fluorescence polarisation
# His-Ub-RIPK3(387-518) = target: T1, His-Ub-RIPK3(387-518); experiment: fluorescence polarisation
# His-Ub-RIPK1(497-583) = target: T2, His-Ub-RIPK1(497-583); experiment: fluorescence polarisation
# [5] = target: the molecule itself; experiment: transmission electron microscopy + thioflavin T fluorescence
# YPet-RIPK3(387-518) [6] = target: B5; experiment: confocal fluorescence microscopy of fibrils
# [7] = target: the molecule itself; experiment: single-molecule two-colour fluorescence coincidence spectroscopy
# [8] = target: the molecule itself; experiment: confocal fluorescence microscopy of fibrils
# X-ray fibre diffraction = target: the molecule itself; experiment: X-ray fibre diffraction
# mCHERRY-RIPK3(387-518) = target: T3, mCHERRY-RIPK3(387-518); experiment: single-molecule two-colour fluorescence coincidence spectroscopy
binder,measurement,setting,value
"RIPK1(497-583) after removal of MBP with thrombin (domain or fragment, human, UniProt Q13546 497-583, looked up) MPSLHNIPVPETNYLGNTPTMPFSSLPPTDESIKYTIYNSTGIQIGAYNYMEIGGTSSSLLDSTNTNFKEEPAAKYQAIFDNTTSLT",binding result,[1],binds
"YPet-RIPK1(497-583) (domain or fragment, human, UniProt Q13546 497-583, looked up) MPSLHNIPVPETNYLGNTPTMPFSSLPPTDESIKYTIYNSTGIQIGAYNYMEIGGTSSSLLDSTNTNFKEEPAAKYQAIFDNTTSLT",binding result,mCHERRY-M45(1-90WT),binds
same,binding result,mCHERRY-RIPK1(497-583),binds
"MBP-RIPK1(497-583) (domain or fragment, human, UniProt Q13546 497-583, looked up) MPSLHNIPVPETNYLGNTPTMPFSSLPPTDESIKYTIYNSTGIQIGAYNYMEIGGTSSSLLDSTNTNFKEEPAAKYQAIFDNTTSLT",binding result,SEC,binds
"RIPK1(497-583) after removal of His6-ubiquitin (domain or fragment, human, UniProt Q13546 497-583, looked up) MPSLHNIPVPETNYLGNTPTMPFSSLPPTDESIKYTIYNSTGIQIGAYNYMEIGGTSSSLLDSTNTNFKEEPAAKYQAIFDNTTSLT",binding result,[2],binds
B1,binding result,YPet-RIPK3(387-518) [3],binds
same,binding result,ECFP-M45(1-90),binds
same,binding result,[4],binds
"Alexa488-labelled RIPK1(497-583) (domain or fragment, human, UniProt Q13546 497-583, looked up, Alexa Fluor 488, covalent label, site not stated (degree of labelling 5%)) MPSLHNIPVPETNYLGNTPTMPFSSLPPTDESIKYTIYNSTGIQIGAYNYMEIGGTSSSLLDSTNTNFKEEPAAKYQAIFDNTTSLT",binding result,His-Ub-M45(1-90),binds
same,binding result,His-Ub-RIPK3(387-518),binds
same,binding result,His-Ub-RIPK1(497-583),binds
VRIMNGVSGIQIGNHNAMS [synthetic peptide encompassing the RHIM of M45],binding result,[5],binds
"M45(1-90) after removal of MBP with thrombin (domain or fragment, murine cytomegalovirus, UniProt Q06A28 1-90, looked up) MDRQPKVYSDPDNGFFFLDVPMPDDGQGGQQTATTAAGGAFGVGGGHSVPYVRIMNGVSGIQIGNHNAMSIASCWSPSYTDRRRRSYPKT",binding result,[1],binds
B2,binding result,YPet-RIPK3(387-518) [6],binds
B3,binding result,YPet-RIPK3(387-518) [3],binds
same,binding result,[7],binds
"MBP-M45(1-90) (domain or fragment, murine cytomegalovirus, UniProt Q06A28 1-90, looked up) MDRQPKVYSDPDNGFFFLDVPMPDDGQGGQQTATTAAGGAFGVGGGHSVPYVRIMNGVSGIQIGNHNAMSIASCWSPSYTDRRRRSYPKT",binding result,SEC,binds
"YPet-M45 (domain or fragment, murine cytomegalovirus, UniProt Q06A28 1-90, looked up) MDRQPKVYSDPDNGFFFLDVPMPDDGQGGQQTATTAAGGAFGVGGGHSVPYVRIMNGVSGIQIGNHNAMSIASCWSPSYTDRRRRSYPKT",binding result,[8],binds
"M45(1-90) after removal of His6-ubiquitin (domain or fragment, murine cytomegalovirus, UniProt Q06A28 1-90, looked up) MDRQPKVYSDPDNGFFFLDVPMPDDGQGGQQTATTAAGGAFGVGGGHSVPYVRIMNGVSGIQIGNHNAMSIASCWSPSYTDRRRRSYPKT",binding result,[2],binds
B4,binding result,X-ray fibre diffraction,binds
"RIPK3(387-518) after removal of MBP with thrombin (domain or fragment, human, UniProt Q9Y572 387-518, looked up) TSSDSMAQPPQTPETSTFRNQMPSPTSTGTPSPGPRGNQGAERQGMNWSCRTPEPNPVTGRPLVNIYNCSGVQVGDNNYLTMQQTTALPTWGLAPSGKGRGLQHPPPVGSQEGPKDPEAWSRPQGWYNHSGK",binding result,[1],binds
B5,binding result,mCHERRY-RIPK3(387-518),binds

# From doi:10.1101/324590 (bioRxiv, 2018)
